Reference: patent CN117247456A (SANYOU BIO INC, dated 2023)

Legend:
重组人PD-L1-His = 重组人PD-L1-His (human, UniProt Q9NZQ7 19-238); assay: SPR, Biacore T200, PD-L1-His as analyte (reference antibody)
重组人PD-L1-mFc = target: T1, 重组人PD-L1-mFc (human, UniProt Q9NZQ7 19-238); assay: ELISA, plate coated with PD-L1-mFc, anti-human IgG Fc-HRP (reference antibody)
T1 construct: also called 人重组蛋白PD-L1-mFc; PD-L1蛋白

[1] = target: T2, 人PD-L1 on huPD-L1-CHO-S细胞 (human, UniProt Q9NZQ7 19-290); assay: flow cytometry on huPD-L1-CHO-S cells (reference antibody)
T2 construct: whole, on cells; also called 细胞表面PD-L1
T2 sequence (Q9NZQ7 19-290): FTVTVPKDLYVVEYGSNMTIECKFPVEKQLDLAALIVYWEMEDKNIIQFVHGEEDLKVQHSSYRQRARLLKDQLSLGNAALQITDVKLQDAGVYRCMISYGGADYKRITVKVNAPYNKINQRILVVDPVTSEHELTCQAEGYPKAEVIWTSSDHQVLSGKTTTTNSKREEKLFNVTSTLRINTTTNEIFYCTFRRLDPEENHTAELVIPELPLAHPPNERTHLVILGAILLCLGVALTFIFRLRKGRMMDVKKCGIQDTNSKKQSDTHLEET

Chain of 重组人PD-L1-His (Q9NZQ7 19-238 limits assumed): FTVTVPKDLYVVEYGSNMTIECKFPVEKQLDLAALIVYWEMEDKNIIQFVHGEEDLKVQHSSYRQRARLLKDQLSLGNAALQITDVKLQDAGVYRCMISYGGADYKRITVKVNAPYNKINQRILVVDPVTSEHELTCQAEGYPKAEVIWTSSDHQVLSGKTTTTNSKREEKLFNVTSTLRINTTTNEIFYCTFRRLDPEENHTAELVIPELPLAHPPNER
T1 sequence (Q9NZQ7 19-238 limits assumed): as above

- binding result (重组人PD-L1-His): binds
- binding result (重组人PD-L1-mFc): binds
- binding result [1]: binds
B1: 抗人PD-L1抗体D21-4 (antibody, V domains shown)
VH: EVQLVESGGGLVQPGGSLRLSCAASRTDRNINTMHWYRQAPGKGREWVGTIFIDLNTIVTDSVKGRFTISRDNAKNTLYLQMNTLRAEDTAVYYCAADVSGYGRAWGQGTTVTVSS
notes: also called 亲本抗体D21-4; 亲本PD-L1抗体D21-4; not shown: rest of the 'complete control antibody' (constant part / Fc) is not described
